Results taken from patent publication US20250263675A1.

Legend:
[1] = target: recombinant human VEGF (R&D, 293-VE-010) (human) (UniProt P15692); assay: Octet HTX biolayer interferometry; antibody prepared in conditioned medium at 100 ug/mL, diluted to 10 ug/mL in 1x kinetics buffer, as loading sample; recombinant human VEGF 200 to 3.125 nM (data of FIG. 3B); ka Error printed 8.54E+02
[2] = target: recombinant human VEGF (R&D, 293-VE-010) (human) (UniProt P15692); assay: Octet HTX biolayer interferometry in 1x kinetics buffer; antibody at 10 ug/mL in buffer as loading sample, recombinant human VEGF 200 to 3.125 nM (data of FIG. 3A); kdis Error printed 1.34E-07
[3] = target: recombinant human VEGF (R&D, 293-VE-010) (human) (UniProt P15692); assay: Octet HTX biosensor; antibody prepared in conditioned medium and diluted to 10 ug/mL in 1x kinetics buffer, recombinant human VEGF 200 nM to 3.125 nM
[4] = target: recombinant human VEGF (R&D, 293-VE-010) (human) (UniProt P15692); assay: Octet HTX biosensor, 1x kinetics buffer; antibody at 10 ug/mL in buffer, recombinant human VEGF 200 nM to 3.125 nM
[5] = target: recombinant human VEGF (R&D, 293-VE-010) (human) (UniProt P15692); assay: Octet HTX biolayer interferometry; antibody prepared in conditioned medium at 100 ug/mL, diluted to 10 ug/mL in 1x kinetics buffer, as loading sample; recombinant human VEGF 200 to 3.125 nM (data of FIG. 3B); kdis Error printed 1.27E-07
[6] = target: recombinant human VEGF (R&D, 293-VE-010) (human) (UniProt P15692); assay: Octet HTX biolayer interferometry in 1x kinetics buffer; antibody at 10 ug/mL in buffer as loading sample, recombinant human VEGF 200 to 3.125 nM (data of FIG. 3A); ka Error printed 7.60E+02

UniProt P15692, sequence (P15692 other isoform, or with tags, fused parts or gaps limits assumed): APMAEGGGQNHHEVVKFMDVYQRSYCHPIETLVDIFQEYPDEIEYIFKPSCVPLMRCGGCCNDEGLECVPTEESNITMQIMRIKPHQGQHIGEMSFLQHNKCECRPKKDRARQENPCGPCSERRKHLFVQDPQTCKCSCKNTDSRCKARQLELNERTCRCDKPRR

Substance “mouse anti-human VEGF monoclonal antibody (R&D, MAB293-100)” has a kon [1] of 286000 M⁻¹ s⁻¹, a koff [2] of under 1e-07 s⁻¹ and a Kd [3] of under 1 pM. It also gave a Kd [4] of under 1 pM, a koff [5] of under 1e-07 s⁻¹ and a kon [6] of 232000 M⁻¹ s⁻¹.
